This is an account of results in US12590147 (OBLIQUE THERAPEUTICS, dated 2026).

Residue numbers refer to the chain shown, from its start.

Assay [1] addresses T1, OTV3-KLH (human; keyhole limpet, conjugated to the carrier via N-terminal Cys ; chain 1 pos 1: Cys chemically coupled to the KLH carrier (written C); linear peptide).
T1 peptide: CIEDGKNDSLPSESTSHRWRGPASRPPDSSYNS
The assay can be described thus: monoclonal phage ELISA, replicate 1. On the procedure:
(§1) Single *E. coli* clones were picked randomly selected during the biopanning step and cultured. Supernatants containing phage were prepared and purified. ELISA plates were coated with antigens conjugated to carriers or carriers alone (control), followed by washing, blocking, washing and addition of purified phage. After additional washing, bound phage was detected using anti-phage-HRP antibody.
(§2) This example describes the production of a monoclonal antibody by phage display. The phage library used in this case was a commercially available human naïve LiAb-Fab library (high diversity of 2×10E^10 variants). After 4 rounds of biopanning and ELISA tests, 80 clones were selected and 5 different sequences were identified within this group of phage clones, represented by R4P1-C1, #1, #2, #3, and #4. Each of these phage clones were tested by ELISA for binding to each of the individual peptides OTV3, OTV4, and OTV5 each coupled to either BSA, OVA or KLH (a total of 9 peptide-conjugates). This is an important confirmation step to ensure clone specificity because due to their nature phages can sometimes bind unspecifically. In the ELISA tests (monoclonal phage ELISA tests) one phage Fab clone, R4P1-C1, bound specifically and strongly to all three of the peptides (all nine of the peptide-carrier conjugates), whereas the other phage Fab clones appeared to be non-specific binders (see Table GG below, all phages were tested at the same concentration).
Background: In an ELISA, binding on a coated surface is turned into a signal by an enzyme label.

For assay [2], the target named is T2, OTV4-KLH (human; keyhole limpet, conjugated to the carrier via N-terminal Cys ; chain 1 pos 1: Cys chemically coupled to the KLH carrier (written C); linear peptide).
T2 peptide: T1 peptide with S24C
The assay can be described thus: monoclonal phage ELISA, replicate 1. The method, then: as §1, §2

Assay [3] addresses T3, OTV5-KLH (human; keyhole limpet, (Pra-) at the N-terminus; C-terminal amide (-CONH2); cyclic; conjugated to the carrier via N-terminal Cys as stated in Example 4 ; chain 1: propargyl group (Pra-) on the N-terminus before Cys1, not …).
T3 peptide: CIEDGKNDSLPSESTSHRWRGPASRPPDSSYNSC
The assay can be described thus: monoclonal phage ELISA, replicate 1. The method, then: as §1, §2

The target of assay [4] is T4, OTV3-OVA (human, UniProt P01012 2-386 (chicken entry), conjugated to the carrier via N-terminal Cys).
T4 sequence (peptide): T1 peptide
T4 sequence: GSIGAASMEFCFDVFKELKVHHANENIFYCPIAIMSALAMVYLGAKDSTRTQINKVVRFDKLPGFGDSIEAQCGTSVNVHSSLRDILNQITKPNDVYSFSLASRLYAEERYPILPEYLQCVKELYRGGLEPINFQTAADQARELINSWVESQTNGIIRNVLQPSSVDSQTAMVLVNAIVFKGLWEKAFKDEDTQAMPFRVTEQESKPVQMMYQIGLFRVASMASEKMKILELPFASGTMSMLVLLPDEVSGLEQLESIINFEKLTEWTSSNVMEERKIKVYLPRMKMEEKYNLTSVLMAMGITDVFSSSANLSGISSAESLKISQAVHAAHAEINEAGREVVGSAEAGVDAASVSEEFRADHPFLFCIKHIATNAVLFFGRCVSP
The assay can be described thus: monoclonal phage ELISA, replicate 1. The method, then: as §1, §2

Assay [5] addresses T5, OTV4-OVA (human, UniProt P01012 2-386 (chicken entry), conjugated to the carrier via N-terminal Cys).
T5 sequence (peptide): T1 peptide with S24C
T5 sequence: T4 sequence
The assay is described as follows: monoclonal phage ELISA, replicate 1. The method, then: as §1, §2

In assay [6] the target is T6, OTV5-OVA (human, UniProt P01012 2-386 (chicken entry), (Pra-) at the N-terminus; C-terminal amide (-CONH2); cyclic; conjugated to the carrier via N-terminal Cys as stated in Example 4).
T6 sequence (peptide): T3 peptide
T6 sequence: T4 sequence
The assay can be described thus: monoclonal phage ELISA, replicate 1. On the procedure:
as §1, §2

The target in assay [7] is T7, OTV3-BSA (human; bovine, conjugated to the carrier via N-terminal Cys). The assay is described as follows: monoclonal phage ELISA, replicate 1. On the procedure: as §1, §2
Assay [8] deals with T8, OTV4-BSA (human; bovine, conjugated to the carrier via N-terminal Cys). The assay can be described thus: monoclonal phage ELISA, replicate 1. On the procedure: as §1, §2
Assay [9] deals with T9, OTV5-BSA (human; bovine, (Pra-) at the N-terminus; C-terminal amide (-CONH2); cyclic; conjugated to the carrier via N-terminal Cys as stated in Example 4). The assay can be described thus: monoclonal phage ELISA, replicate 1. On the procedure:
as §1, §2

In assay [10] the target is T1, OTV3-KLH. The assay can be described thus: monoclonal phage ELISA, replicate 2. On the procedure: as §1, §2
The target in assay [11] is T2, OTV4-KLH. The assay can be described thus: monoclonal phage ELISA, replicate 2. The method, then: as §1, §2
Assay [12] has as its target T3, OTV5-KLH. The assay can be described thus: monoclonal phage ELISA, replicate 2. On the procedure: as §1, §2
Assay [13] addresses T4, OTV3-OVA. The assay can be described thus: monoclonal phage ELISA, replicate 2. The method, then: as §1, §2
For assay [14], the target named is T5, OTV4-OVA. The assay can be described thus: monoclonal phage ELISA, replicate 2. The method, then:
as §1, §2

Assay [15] concerns the target T6, OTV5-OVA. The assay can be described thus: monoclonal phage ELISA, replicate 2. The method, then:
as §1, §2

In assay [16] the target is T7, OTV3-BSA. The assay is described as follows: monoclonal phage ELISA, replicate 2. The method, then:
as §1, §2

Assay [17] concerns the target T8, OTV4-BSA. The assay can be described thus: monoclonal phage ELISA, replicate 2. On the procedure: as §1, §2
The target of assay [18] is T9, OTV5-BSA. The assay can be described thus: monoclonal phage ELISA, replicate 2. The method, then:
as §1, §2

T7 sequence (P02769 25-607 limits assumed): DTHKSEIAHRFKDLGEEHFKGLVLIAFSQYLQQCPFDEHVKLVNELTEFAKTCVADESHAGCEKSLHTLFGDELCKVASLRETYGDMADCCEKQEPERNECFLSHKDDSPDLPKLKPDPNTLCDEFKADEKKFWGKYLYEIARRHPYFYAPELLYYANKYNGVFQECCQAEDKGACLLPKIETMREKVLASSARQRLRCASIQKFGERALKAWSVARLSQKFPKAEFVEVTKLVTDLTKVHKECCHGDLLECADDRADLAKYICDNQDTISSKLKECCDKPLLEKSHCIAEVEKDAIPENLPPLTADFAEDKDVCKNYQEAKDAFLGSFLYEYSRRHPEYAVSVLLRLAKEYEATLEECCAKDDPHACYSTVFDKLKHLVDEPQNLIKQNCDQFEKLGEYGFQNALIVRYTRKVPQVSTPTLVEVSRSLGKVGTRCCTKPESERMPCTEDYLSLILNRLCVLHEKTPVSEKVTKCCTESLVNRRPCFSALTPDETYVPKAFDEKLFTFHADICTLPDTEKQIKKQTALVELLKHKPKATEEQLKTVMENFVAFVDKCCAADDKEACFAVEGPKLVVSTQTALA
T8 sequence (P02769 25-607 limits assumed): as above
T9 sequence (P02769 25-607 limits assumed): as above

B1: R4P1-C1 (phage Fab clone) (Fab, V domains shown)
VH: QVQLQQSGPGLVKPSQTLSLTCAISGDSVSSNSAAWNWIRQSPSRGLEWLGRTYYRSKWYNDYAVSVKSRITINPDTSKNQFSLQLNSVTPEDTAVYYCARDDYDPVGMYAFDIWGQGTLVTVSS
VL: LPVLTQPPSASGTPGQRVTISCSGSSSNIGSNTVNWYQQLPGTAPKLLIYRNTQRPSGVPDRFSGSKSGTSASLAISGLQSEDEADYYCEAWDDSMRGAAFGGGTQLTVL
notes: also called phage clone R4P1-C1
Consider B1, for which the ELISA signal stood at 3.13 with OTV3-KLH [1]; 2.81 with OTV4-KLH [2]; 2.74 with OTV5-KLH [3]; 2.85 in the assay with OTV3-OVA [4]; 2.84 with OTV4-OVA [5]; 2.61 with OTV5-OVA [6]. For the same molecule, the ELISA signal with OTV3-BSA [7] is 2.87; with OTV4-BSA [8] it was 2.95; in the assay with OTV5-BSA [9], 2.63; in the assay with OTV3-KLH [10], 2.94; with OTV4-KLH [11] it was 2.51; with OTV5-KLH [12], 2.58. Moreover, the ELISA signal with OTV3-OVA [13] stood at 2.72; with OTV4-OVA [14] it was 2.78; with OTV5-OVA [15] it was 2.49; with OTV3-BSA [16], 2.65; in the assay with OTV4-BSA [17], 2.8; in the assay with OTV5-BSA [18], 2.56.
